Experimental data published in patent US20220143136A1, “USE OF ANNEXINS IN PREVENTING AND TREATING MUSCLE MEMBRANE INJURY” (NORTHWESTERN UNIVERSITY, priority 2018, published 2022).

Legend:
[1] = test system: Duchenne muscular dystrophy boys; details: orally, 100 mg/kg; cited from earlier work
[2] = test system: Anxa6^em1(GFP) mice; experiment: Prednisone injection, annexin A6GFP repair cap after laser injury of isolated myofibers; format: in vivo, mouse; details: 1 mg/kg intraperitoneal, myofibers isolated 24 hours post injection; vs DMSO control
Description: Multiphoton laser injury and imaging. Isolated fibers were subjected to laser-induced damage at room temperature using the Nikon A1R-MP multiphoton microscope. Imaging was performed using a 25×1.1 NA objective directed by the NIS-Elements AR imaging software. Green fluorescence protein (GFP) and FM 4-64 were excited using a 920 nm wavelength laser and emission wavelengths of […] and 629 nm were collected respectively. To induce laser damage on isolated myofibers, a diffraction limited spot (diameter approximately 410 nm) was created on the lateral membrane of the myofiber using a 920 nm wavelength laser at 10-15% laser power for 1 second. Time lapse images were collected as follows: one image was collected prior to damage, one image upon damage, then every 8 s for 80 s (10 images) followed by every 30 seconds for 5 min (10 images). At the end of the time lapsed image series, z-stack images were collected at 250 nm intervals through the damaged site on the myofiber directed by the NIS-Elements AR imaging software. Fluorescence intensity and cap area were measured using Fiji (NIH).
For prednisone studies, prednisone (catalog P6254) was resuspended in DMSO (catalog D2650, Sigma-Aldrich) at 5 mg/ml. Dosing was based on pretreatment weights (1 mg/kg body weight) in 30 μl total PBS. Mice were injected at 7 am on the day prior to imaging. […]

[3] = test system: rat model of myocardial ischemia-reperfusion-induced injury; details: La et al., FASEB J. 2001; cited from earlier work
[4] = test system: wildtype myofibers; experiment: Laser-induced membrane injury, FM 4-64 dye uptake; format: cell-based, mouse; details: mutant A6E233A-GFP vs wildtype annexin A6-GFP expressing myofibers
[5] = test system: myofibers; experiment: Annexin repair cap formation after laser injury at multiple Ca2+ concentrations; format: cell-based, mouse
Description: (§1) Electroporation, myofiber isolation, laser injury, cap and vesicle measurement. Flexor digitorum brevis (FDB) fibers were transfected with endo-free plasmid DNA by in vivo electroporation. Methods were described previously in (Demonbreun and McNally, 2015; Demonbreun et al., 2016b; DiFranco et al., 2009). Z-stack projections were acquired from consecutive acquisitions after the final time-lapse frame, approximately 4 minutes post damage, with a […] step size between slices. Z-stack renderings were constructed in FIJI. Measurement of the cap area and feret diameter were conducted from a single slice near the middle of the z-stack using FIJI imaging tools. Fibers expressing similar levels of tagged or GCaMP5G protein were compared. GCaMP5G Ca^2+ fluorescence was measured from the acquired timelapse images, using a standard rectangular ROI, placed inside the myofiber below the site of damage using FIJI. Fluorescence was expressed as F/F0. External vesicle number and GCaMP5G area were measured from endpoint z-stacks and max projection images using FIJI. Vesicles were considered external if they were found outside the sarcolemma assessed in brightfield and fluorescent channels. All measurements were acquired from myofibers isolated from at least n≥3 mice, n≥3 myofibers per mouse.
Calcium kinetics. FDB muscle was electroporated and isolated as described above. Myofibers were damaged in Ringers solution with Ca^2+ concentrations of 2 mM, 1 mM, 0.5 mM, 0.25 mM, 0.175 mM, 0.1 mM, 0.050 mM, and 0 mM. EDTA was added as a Ca^2+ chelating agent in only in the 0 mM Ca^2+ Ringers. Myofibers were isolated directly into 2 mM, 1 mM and 0.5 mM Ringers for those experiments respectively. For experiments using less than 0.5 mM Ca^2+ myofibers were isolated in 0.5 mM Ca^2+ Ringers and then diluted with 0 mM EDTA-free Ca^2+ Ringers. For 0 mM experiments, myofibers were isolated in 0.5 mM Ca^2+ Ringers and then replaced with 0 mM Ca^2++EDTA Ringers just prior to imaging. Co-electroporation of wildtype annexin+wildtype annexin constructs was performed in one mouse foot, while the contralateral foot was co-electroporated with wildtype annexin+mutant annexin. All measurements were acquired from myofibers isolated from at least n≥2 mice, n≥3 myofibers per mouse at each Ca^2+ concentration. Area-Ca^2+ curves were fitted with a Hill Curve at Ca^2+ concentrations ranging from 0-2 mM. Kinetic parameters were calculated using Prism Graphpad.
as §1, with “(Demonbreun A R, Quattrocelli M, Barefield D Y, Allen M V, Swanson K E,” for “(Demonbreun”, “McNally E M. An actin-dependent annexin complex mediates plasma membrane repair in muscle. The Journal of cell biology. 2016; 213(6):705-18; Demonbreun A R, and McNally E M. DNA Electroporation, Isolation and Imaging of Myofibers. Journal of visualized experiments: JoVE.” for “McNally,”, “106(106):e53551;” for “Demonbreun et al., 2016b;”, “M, Quinonez M, Capote J, and Vergara J. DNA transfection of mammalian skeletal muscles using in vivo electroporation. Journal of visualized experiments: JoVE. 2009; 32(32)).” for “et al., 2009).”, “Vesicles were considered external if they were found outside the sarcolemma assessed in brightfield and fluorescent channels. All measurements were acquired from myofibers isolated from at least n≥3 mice, n≥3 myofibers per mouse.” left out

[6] = test system: wildtype myofibers; experiment: Laser injury FM 4-64 uptake, E coli versus HEK cell produced rANXA6; format: cell-based, mouse; details: 13 μg/ml and 130 μg/ml; for FM 4-64 dye uptake after laser injury: vs BSA control
Description: Myofiber isolation, laser injury, and dye measurement. For recombinant myofibers studies, myofibers were isolated from wildtype mice. Myofibers were incubated in Ringer's media with 13 μg/ml or 130 μg/ml human recombinant annexin, E coli or HEK cell produced. Bovine serum albumin (BSA) was used as a negative control. FM 4-64 ([…]) was added to the myofibers just prior to imaging. Fibers were subjected to laser-induced damage at room temperature using the Nikon A1R-MP multiphoton microscope. Imaging was performed using a 25×1.1 NA objective directed by the NIS-Elements AR imaging software. FM 4-64 was excited using a 920 nm wavelength laser and emission wavelengths of 575 nm and 629 nm were collected, respectively. To induce laser damage on isolated myofibers, a diffraction limited spot (diameter approximately 410 nm) was created on the lateral membrane of the myofiber using a 920 nm wavelength laser at 10-15% laser power for 1 second. FM 4-64 area was measured using FIJI from a single slice near the middle of the z-stack. Myofiber quality control was based on a number of characteristics including using adherent myofibers with intact sarcomere structure. Myofibers appeared devoid of tears or ruptures induced during the isolation protocol. The region of the myofiber selected for damage was linear and not located on a nucleus or neuromuscular junction.
Statistical analyses were performed with Prism (Graphpad, La Jolla, Calif.). Comparisons relied on ANOVA (1way ANOVA for 1 variable). P-values of less than or equal to 0.05 were considered significant. Error bars represent +/−standard error of the mean (SEM).

CC/C=C\C/C=C\C/C=C\C/C=C\C/C=C\C/C=C\CCC(=O)NCCNC(=O)c1ccccc1O [Edasalonexent]
muscle disease progression [1]: delayed muscle disease progression

C[C@]12C=CC(=O)C=C1CC[C@@H]1[C@@H]2C(=O)C[C@@]2(C)[C@H]1CC[C@]2(O)C(=O)CO [prednisone]
annexin A6GFP repair cap size [2]: reduced

AC2-26: N-terminal annexin A1 peptide (AMVSEFLKQAWFIENEEQEYVQTVK; UniProt P04083 2-26, looked up, fragment) [reference compound]
cardioprotection [3]: cardioprotective response

B1: annexin A6E233A: Ca2+-binding mutant of annexin A6 (E233A), plasmid expressed, dominant negative (protein, UniProt P14824 2-673, looked up, variant E233A)
Annexin A6: AKIAQGAMYRGSVHDFPEFDANQDAEALYTAMKGFGSDKESILELITSRSNKQRQEICQNYKSLYGKDLIEDLKYELTGKFERLIVNLMRPLAYCDAKEIKDAISGVGTDEKCLIEILASRTNEQMHQLVAAYKDAYERDLESDIIGDTSGHFQKMLVVLLQGTRENDDVVSEDLVQQDVQDLYEAGELKWGTDEAQFIYILGNRSKQHLRLVFDEYLKTTGKPIEASIRGALSGDFEKLMLAVVKCIRSTPEYFAERLFKAMKGLGTRDNTLIRIMVSRSELDMLDIREIFRTKYEKSLYSMIKNDTSGEYKKALLKLCGGDDDAAGQFFPEAAQVAYQMWELSAVSRVELKGTVCAANDFNPDADAKALRKAMKGIGTDEATIIDIVTHRSNAQRQQIRQTFKSHFGRDLMADLKSEISGDLARLILGLMMPPAHYDAKQLKKAMEGAGTDEKTLIEILATRTNAEIRAINEAYKEDYHKSLEDALSSDTSGHFRRILISLATGNREEGGENRDQAQEDAQVAAEILEIADTPSGDKTSLETRFMTVLCTRSYPHLRRVFQEFIKKTNYDIEHVIKKEMSGDVKDAFVAIVQSVKNKPLFFADKLYKSMKGAGTDEKTLTRVMVSRSEIDLLNIRREFIEKYDKSLHQAIEGDTSGDFMKALLALCGGED
modifications: GFP tag
FM 4-64 fluorescence area after laser injury [4]: increased
annexin A1, A2 and A6 cap size with co-expressed mutant annexin A6 ([5]; compared to A1+A6, A2+A6, A6+A6 controls (heterotypic)): significant reduction
repair cap diameter (DMAX) / cap size of the co-expressed wildtype annexin of the same type ([5]; wildtype+mutant vs wildtype+wildtype co-electroporation (homotypic)): significantly reduced

B2: recombinant annexin A1: recombinant annexin A1 protein (literature) (protein, UniProt P04083 2-346, looked up)
Annexin A1: AMVSEFLKQAWFIENEEQEYVQTVKSSKGGPGSAVSPYPTFNPSSDVAALHKAIMVKGVDEATIIDILTKRNNAQRQQIKAAYLQETGKPLDETLKKALTGHLEEVVLALLKTPAQFDADELRAAMKGLGTDEDTLIEILASRTNKEIRDINRVYREELKRDLAKDITSDTSGDFRNALLSLAKGDRSEDFGVNEDLADSDARALYEAGERRKGTDVNVFNTILTTRSYPQLRRVFQKYTKYSKHDMNKVLDLELKGDIEKCLTAIVKCATSKPAFFAEKLHQAMKGVGTRHKALIRIMVSRSEIDMNDIKAFYQKMYGISLCQAILDETKGDYEKILVALCGGN
cardioprotection [3]: cardioprotective response

B3: E coli produced rANXA6: human recombinant annexin A6 produced in E coli, from R&D Systems or CRO Evotec SE (protein, UniProt P08133 2-673, looked up)
Annexin A6: AKPAQGAKYRGSIHDFPGFDPNQDAEALYTAMKGFGSDKEAILDIITSRSNRQRQEVCQSYKSLYGKDLIADLKYELTGKFERLIVGLMRPPAYCDAKEIKDAISGIGTDEKCLIEILASRTNEQMHQLVAAYKDAYERDLEADIIGDTSGHFQKMLVVLLQGTREEDDVVSEDLVQQDVQDLYEAGELKWGTDEAQFIYILGNRSKQHLRLVFDEYLKTTGKPIEASIRGELSGDFEKLMLAVVKCIRSTPEYFAERLFKAMKGLGTRDNTLIRIMVSRSELDMLDIREIFRTKYEKSLYSMIKNDTSGEYKKTLLKLSGGDDDAAGQFFPEAAQVAYQMWELSAVARVELKGTVRPANDFNPDADAKALRKAMKGLGTDEDTIIDIITHRSNVQRQQIRQTFKSHFGRDLMTDLKSEISGDLARLILGLMMPPAHYDAKQLKKAMEGAGTDEKALIEILATRTNAEIRAINEAYKEDYHKSLEDALSSDTSGHFRRILISLATGHREEGGENLDQAREDAQVAAEILEIADTPSGDKTSLETRFMTILCTRSYPHLRRVFQEFIKMTNYDVEHTIKKEMSGDVRDAFVAIVQSVKNKPLFFADKLYKSMKGAGTDEKTLTRIMVSRSEIDLLNIRREFIEKYDKSLHQAIEGDTSGDFLKALLALCGGED
modifications: E. coli produced
notes: human recombinant annexin A6 produced in E coli, from R&D Systems or CRO Evotec SE
effect on membrane repair, E coli produced compared to mammalian cell produced protein [6]: not significantly different
effect on membrane repair, E coli produced compared to mammalian cell produced protein ([6]; listed as annexin A6 protein produced in prokaryotic cells): performed as well as
FM 4-64 dye uptake after laser injury [6]: significantly less

B4: mammalian HEK cell produced rANXA6: human recombinant annexin A6 produced in mammalian HEK cells (protein, UniProt P08133 2-673, looked up)
Annexin A6: B3 Annexin A6
FM 4-64 dye uptake after laser injury [6]: significantly less
